Laboratory results published in US20230340055A1 (published 2023).
Like-named read-outs stand apart in the source and are kept apart here.

How the values were obtained:
[1] = target: T1, IL-2Rβγ (dimeric intermediate affinity IL-2 receptor), human, on cells (human, UniProt P14784 27-551; P31785 23-369); assay: cell-based or functional assay
T1 sequence (looked up) 1: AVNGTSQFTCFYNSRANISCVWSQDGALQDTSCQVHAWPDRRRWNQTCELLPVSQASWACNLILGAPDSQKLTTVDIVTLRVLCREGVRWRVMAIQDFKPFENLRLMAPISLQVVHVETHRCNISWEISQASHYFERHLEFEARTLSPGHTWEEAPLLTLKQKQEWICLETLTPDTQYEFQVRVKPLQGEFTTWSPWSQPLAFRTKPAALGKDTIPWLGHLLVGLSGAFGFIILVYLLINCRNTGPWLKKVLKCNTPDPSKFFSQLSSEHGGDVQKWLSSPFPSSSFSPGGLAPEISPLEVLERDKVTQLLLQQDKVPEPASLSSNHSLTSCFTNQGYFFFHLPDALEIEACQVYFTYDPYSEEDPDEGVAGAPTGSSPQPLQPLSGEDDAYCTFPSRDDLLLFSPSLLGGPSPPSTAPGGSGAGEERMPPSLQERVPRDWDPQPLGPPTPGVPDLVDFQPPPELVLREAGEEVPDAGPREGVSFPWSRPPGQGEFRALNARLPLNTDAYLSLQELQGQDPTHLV
T1 sequence (looked up) 2: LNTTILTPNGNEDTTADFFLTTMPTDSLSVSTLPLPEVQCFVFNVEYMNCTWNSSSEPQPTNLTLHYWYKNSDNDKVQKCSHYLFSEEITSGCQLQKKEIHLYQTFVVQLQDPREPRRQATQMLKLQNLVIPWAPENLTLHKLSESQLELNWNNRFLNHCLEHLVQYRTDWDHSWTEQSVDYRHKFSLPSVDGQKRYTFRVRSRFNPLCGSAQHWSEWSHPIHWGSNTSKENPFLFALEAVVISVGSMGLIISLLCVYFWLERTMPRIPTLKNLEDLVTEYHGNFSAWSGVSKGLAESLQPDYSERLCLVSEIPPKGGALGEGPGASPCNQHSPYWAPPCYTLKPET

[2] = target: T2, IL-2Rαβγ (trimeric high-affinity IL-2 receptor), human, on cells (human, UniProt P01589 22-272; P14784 27-551; P31785 23-369); assay: cell-based or functional assay
T2 sequence (looked up) 1: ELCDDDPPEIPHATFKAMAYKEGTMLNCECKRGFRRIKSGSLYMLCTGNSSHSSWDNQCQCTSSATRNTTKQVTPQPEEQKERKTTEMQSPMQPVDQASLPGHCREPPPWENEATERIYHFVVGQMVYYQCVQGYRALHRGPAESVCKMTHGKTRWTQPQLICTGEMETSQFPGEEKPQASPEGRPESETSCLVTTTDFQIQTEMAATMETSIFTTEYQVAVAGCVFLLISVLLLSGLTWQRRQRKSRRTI
T2 sequence (looked up) 2: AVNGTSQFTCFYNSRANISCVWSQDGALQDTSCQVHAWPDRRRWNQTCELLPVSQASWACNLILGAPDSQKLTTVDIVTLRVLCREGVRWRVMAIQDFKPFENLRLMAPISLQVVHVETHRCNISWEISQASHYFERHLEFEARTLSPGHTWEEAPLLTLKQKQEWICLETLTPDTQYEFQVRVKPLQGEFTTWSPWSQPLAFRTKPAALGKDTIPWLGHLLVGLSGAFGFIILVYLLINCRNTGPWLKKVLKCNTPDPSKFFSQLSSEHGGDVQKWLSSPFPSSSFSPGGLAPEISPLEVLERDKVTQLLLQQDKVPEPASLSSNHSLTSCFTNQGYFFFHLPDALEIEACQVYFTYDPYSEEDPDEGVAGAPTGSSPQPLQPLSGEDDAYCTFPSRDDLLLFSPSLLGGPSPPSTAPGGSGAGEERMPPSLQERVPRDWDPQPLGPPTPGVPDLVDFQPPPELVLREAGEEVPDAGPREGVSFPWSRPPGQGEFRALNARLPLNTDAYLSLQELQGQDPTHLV
T2 sequence (looked up) 3: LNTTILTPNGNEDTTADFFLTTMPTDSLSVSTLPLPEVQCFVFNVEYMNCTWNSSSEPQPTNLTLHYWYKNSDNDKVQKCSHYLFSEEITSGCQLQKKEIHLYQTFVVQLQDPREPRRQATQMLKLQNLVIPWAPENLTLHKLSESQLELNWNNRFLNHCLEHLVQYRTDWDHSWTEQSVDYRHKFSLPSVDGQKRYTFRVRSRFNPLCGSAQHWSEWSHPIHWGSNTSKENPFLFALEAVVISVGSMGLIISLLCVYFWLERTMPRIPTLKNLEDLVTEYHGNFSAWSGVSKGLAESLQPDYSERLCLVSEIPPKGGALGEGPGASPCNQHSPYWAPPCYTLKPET

[3] = target: T1, IL-2Rβγ (dimeric intermediate affinity …); assay: cell-based or functional assay; remark: listed apart in the source
[4] = target: T2, IL-2Rαβγ (trimeric high-affinity IL-2 …); assay: cell-based or functional assay; remark: listed apart in the source
[5] = target: T1, IL-2Rβγ (dimeric intermediate affinity …); assay: cell-based or functional assay; remark: listed apart in the source
[6] = target: T2, IL-2Rαβγ (trimeric high-affinity IL-2 …); assay: cell-based or functional assay; remark: listed apart in the source
[7] = target: T3, Human IL-2 Receptor alpha, Fc-Tag (Symansis, New Zealand) (human, UniProt P01589 22-240); assay: SPR; KD to IL-2Rα divided by KD to IL-2Rβ of the same compound
T3 construct: extracellular domain; Bought reagent; also called IL-2Rα; IL-2Rα-Fc; not shown: Fc-Tag (captured by anti-human IgG (Fc) antibody)
T3 sequence (looked up): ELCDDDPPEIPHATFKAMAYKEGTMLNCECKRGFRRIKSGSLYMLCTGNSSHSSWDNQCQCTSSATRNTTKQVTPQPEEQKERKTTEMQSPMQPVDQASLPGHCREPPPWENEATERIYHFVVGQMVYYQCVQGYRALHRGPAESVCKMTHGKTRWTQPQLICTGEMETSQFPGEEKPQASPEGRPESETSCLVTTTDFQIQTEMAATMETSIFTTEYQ
Protocol: (§1) For the determination of binding kinetics to IL-2Rα the following chip preparation was used: Human IL-2 Receptor alpha, Fc-Tag (Symansis, New Zealand) was diluted in HBS-EP running buffer (GE Healthcare, 10 mM HEPES, 150 mM NaCl, 3 mM EDTA, 0.05% Surfactant P20, pH 7.4) to approx. 0.67 µg/mL and immobilized at a flow rate of 50 µL/min for 60 s to achieve 80 - 100 response units (RU).
as §1, with “IL-2Rβ” for “IL-2Rα”, “beta,” for “alpha,”, “around 0.80” for “approx. 0.67”, “140” for “80”, “180” for “100”
(§2) (50 µL/min flow rate, 60 s contact time, 300 s dissociation time). Double referenced data (subtracted data from the reference flow cell and the buffer only samples) was analysed via a kinetic fit (1:1 binding model) to determine KD, kₐ and kd. Regeneration after each cycle was performed with 3 M MgCl₂.

[8] = target: T3, Human IL-2 Receptor alpha, Fc-Tag …; assay: calculated from the SPR KD values of Example 7; reference protein 5a
Protocol: as §1
as §1, with “IL-2Rβ” for “IL-2Rα”, “beta,” for “alpha,”, “around 0.80” for “approx. 0.67”, “140” for “80”, “180” for “100”
as §2

[9] = target: T4, Human IL-2 Receptor beta, Fc-Tag (Symansis, New Zealand) (human, UniProt P14784 27-240); assay: SPR (Biacore T200), IL-2Rβ-Fc captured on anti-human IgG (Fc) CM5 chip, IL-2 as analyte, multi-cycle kinetics, 1:1 kinetic fit, 25 C
T4 construct: extracellular domain; Bought reagent; also called IL-2Rβ; IL-2Rβ-Fc; not shown: Fc-Tag (captured by anti-human IgG (Fc) antibody)
T4 sequence (looked up): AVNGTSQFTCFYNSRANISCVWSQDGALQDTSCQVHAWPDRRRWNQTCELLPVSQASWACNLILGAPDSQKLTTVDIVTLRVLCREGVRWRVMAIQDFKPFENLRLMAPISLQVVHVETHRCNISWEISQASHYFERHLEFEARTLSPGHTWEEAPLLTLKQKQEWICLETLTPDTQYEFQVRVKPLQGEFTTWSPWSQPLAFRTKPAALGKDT
Protocol: as §1, with “IL-2Rβ” for “IL-2Rα”, “beta,” for “alpha,”, “around 0.80” for “approx. 0.67”, “140” for “80”, “180” for “100”
as §2

[10] = target: T5, IL-2-Rα/β/γ on the murine CTLL-2 T lymphocyte cell line (murine, UniProt P01590 22-268; P16297 27-539; P34902 23-369); assay: cell-based or functional assay
T5 sequence (looked up) 1: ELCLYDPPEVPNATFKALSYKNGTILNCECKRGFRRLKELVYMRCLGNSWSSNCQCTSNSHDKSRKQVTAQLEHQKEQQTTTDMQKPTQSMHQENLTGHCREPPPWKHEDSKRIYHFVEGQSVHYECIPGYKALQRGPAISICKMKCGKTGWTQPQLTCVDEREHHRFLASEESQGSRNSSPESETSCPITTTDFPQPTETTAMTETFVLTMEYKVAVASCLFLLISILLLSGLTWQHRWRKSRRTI
T5 sequence (looked up) 2: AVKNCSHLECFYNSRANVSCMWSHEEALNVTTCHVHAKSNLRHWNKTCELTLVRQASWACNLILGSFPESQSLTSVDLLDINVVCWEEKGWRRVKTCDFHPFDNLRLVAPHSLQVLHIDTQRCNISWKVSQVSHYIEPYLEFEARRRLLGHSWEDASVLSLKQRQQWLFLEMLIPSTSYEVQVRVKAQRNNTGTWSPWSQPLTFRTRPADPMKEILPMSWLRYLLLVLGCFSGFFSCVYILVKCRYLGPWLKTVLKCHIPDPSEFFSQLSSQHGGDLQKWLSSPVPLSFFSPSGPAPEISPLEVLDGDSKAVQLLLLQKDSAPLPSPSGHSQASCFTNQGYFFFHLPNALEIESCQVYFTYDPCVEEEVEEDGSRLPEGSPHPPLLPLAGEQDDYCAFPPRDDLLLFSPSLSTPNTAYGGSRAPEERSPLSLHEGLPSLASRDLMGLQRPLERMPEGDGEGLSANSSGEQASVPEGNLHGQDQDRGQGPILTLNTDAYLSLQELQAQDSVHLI
T5 sequence (looked up) 3: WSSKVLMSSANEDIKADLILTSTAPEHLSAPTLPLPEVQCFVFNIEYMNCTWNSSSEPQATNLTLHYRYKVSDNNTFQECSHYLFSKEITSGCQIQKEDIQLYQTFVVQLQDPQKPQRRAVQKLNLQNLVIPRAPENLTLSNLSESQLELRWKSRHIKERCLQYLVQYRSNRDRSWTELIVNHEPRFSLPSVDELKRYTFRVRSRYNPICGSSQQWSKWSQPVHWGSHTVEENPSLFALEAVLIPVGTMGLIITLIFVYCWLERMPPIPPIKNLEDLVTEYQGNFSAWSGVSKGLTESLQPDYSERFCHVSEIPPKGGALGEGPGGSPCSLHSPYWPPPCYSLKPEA

[11] = target: T1, IL-2Rβγ (dimeric intermediate affinity …); assay: cell-based or functional assay; remark: listed apart in the source

B1: protein 1a (ligand)
chain: APTSSSTKKTQLQLEHLLLDLQMILNGINNYKNPKLTFGNSTKFYMPKKATELKHLQCLEEELKPLEEVLNLAQSKNFHLRPRDLISNINVIVLELKGSETTFMCEYADETATIVEFLNRWITFSQSIISTLTHHHHHH
modifications: N-glycosylated (at least 90% by SDS-PAGE shift, removed by PNGase F)
[1]
  Ave EC50, pSTAT5 MFI, CD8+ T cells (human whole blood): 12.6 ng/ml
  Ave EC50, pSTAT5 MFI, NK cells (human whole blood): 3.07 ng/ml
  Fold reduction in potency vs WT-IL2 (1d), pSTAT5 MFI, CD8+ T cells: 1.44 fold
  Fold reduction in potency vs WT-IL2 (1d), pSTAT5 MFI, NK cells: 1.34 fold
[2]
  Ave EC50, pSTAT5 MFI, T regulatory cells (human whole blood): 7.93 ng/ml
  Fold reduction in potency vs WT-IL2 (1d), pSTAT5 MFI, T regulatory cells: 437 fold
[3]
  Ave EC50, pSTAT5 percent positive, CD8+ T cells (human whole blood): 1.69 ng/ml
  Ave EC50, pSTAT5 percent positive, NK cells (human whole blood): 0.371 ng/ml
  Fold reduction in potency vs WT-IL2 (1d), pSTAT5 percent positive, CD8+ T cells: 1.58 fold
  Fold reduction in potency vs WT-IL2 (1d), pSTAT5 percent positive, NK cells: 2.01 fold
[4]
  Ave EC50, pSTAT5 percent positive, T regulatory cells (human whole blood): 1.06 ng/ml
  Fold reduction in potency vs WT-IL2 (1d), pSTAT5 percent positive, T regulatory cells: 598 fold

B2: protein 1f (ligand)
chain: APTSSSTKKTQLQLEHLLLDLQMILNGINNYKNPKLTFGNSTKFYMPKKATELKHLQCLEEELKPLEEVLNLAQSKNFHLRPRDLISNINVIVLELKGSETTFMCEYADETATIVEFLNRWITFSQSIISTLT
modifications: N-glycosylated at the introduced N-glycosylation site (motif FGNST, peptide LTFGNSTK; heterogeneous glycans); heterogeneous O-glycosylation at the wildtype O-glycosylation site
notes: also called N-glycosylated IL2 (1f)
[5]
  Ave EC50, pSTAT5 MFI, CD8+ T cells (human whole blood): 54.8 ng/ml
  Ave EC50, pSTAT5 MFI, NK cells (human whole blood): 7.35 ng/ml
  Fold reduction in potency vs WT-IL2 (1d), pSTAT5 MFI, CD8+ T cells: 2.13 fold
  Fold reduction in potency vs WT-IL2 (1d), pSTAT5 MFI, NK cells: 1.22 fold
[6]
  Ave EC50, pSTAT5 MFI, T regulatory cells (human whole blood): 33.5 ng/ml
  Fold reduction in potency vs WT-IL2 (1d), pSTAT5 MFI, T regulatory cells: 372 fold
[7]
  KD-Ratio (α/β): > 4.02
[8]
  ratio of Ratio protein 1f to Ratio protein 5a (KD to IL-2Rα / KD to IL-2Rβ): > 200
[9]
  Kd: 993 nM

B3: conjugate release mixture 8 (other)
chain: APTSSSTKKTQLQLEHLLLDLQMILNGINNYKNPKLTFGNSTKFYMPKKATELKHLQCLEEELKPLEEVLNLAQSKNFHLRPRDLISNINVIVLELKGSETTFMCEYADETATIVEFLNRWITFSQSIISTLT
modifications: glycosylated as protein 6; residual conjugate 7 in the mixture carries one 40 kDa mPEG-linker on a primary amine of the N-terminus or a lysine side chain
[10]
  EC50 CTLL-2, STAT5 phosphorylation: 1.57 µg/mL
  Ratio (E50 CTLL-2 cells/EC50 HH cell): 39.5
[11]
  EC50 HH cells, STAT5 phosphorylation: 0.0398 µg/mL
